# According to patent US20060074222:
# Test system: Pin1 R14A (SEQ ID NO:2)
substance,measurement,value
phosphokinase A (PKA),"MALDI-TOF of partial tryptic digest, mass gain of peptide 69-74",the peak corresponding to residues 69-74 of Pin1 gains ~80 Daltons after treatment with PKA
same,"proline isomerase activity (protease-coupled assay, rate constant of isomerization)",phosphorylation of Pin1 R14A at position 71 by PKA inhibits the ability of the enzyme to isomerizes substrate
